{
  "source": "patent US20050008616A1",
  "about": "“Recombinant human interferon-beta-1b polypeptides” (Schering Aktiengesellschaft, priority 2003, published 2005)",
  "key": {"[1]": {"target": "T1, fibroblast-derived native IFN-β (Homo sapiens, UniProt P01574)", "T1 construct": "host or cells: human fibroblasts (natural producer)", "T1 sequence (P01574 22-187)": "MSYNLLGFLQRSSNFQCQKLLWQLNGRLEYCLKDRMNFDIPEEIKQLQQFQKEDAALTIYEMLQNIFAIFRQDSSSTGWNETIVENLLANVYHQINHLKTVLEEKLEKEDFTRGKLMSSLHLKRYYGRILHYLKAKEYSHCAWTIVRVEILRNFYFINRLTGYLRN", "conditions": "partially purified native interferon; cited from earlier work"}, "[2]": {"target": "T2, Soybean Agglutinun (soybean, UniProt P05046 33-285, biotinylated (sites not given))", "T2 construct": "Bought biotinylated lectin; also called SBA", "T2 sequence (P05046 33-285 limits assumed)": "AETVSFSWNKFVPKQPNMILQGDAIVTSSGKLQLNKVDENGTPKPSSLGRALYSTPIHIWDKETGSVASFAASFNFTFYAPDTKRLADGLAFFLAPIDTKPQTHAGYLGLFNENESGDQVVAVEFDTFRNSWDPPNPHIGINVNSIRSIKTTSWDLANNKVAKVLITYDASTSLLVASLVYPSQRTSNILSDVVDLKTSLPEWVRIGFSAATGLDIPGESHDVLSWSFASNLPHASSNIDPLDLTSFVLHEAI", "experiment": "dot blot, probed with biotinylated lectin", "procedure": "Finally, IFN-β-1b lot A was tested for binding to biotinylated lectins from Vector Laboratories."}, "[3]": {"tested_on": "EAE", "conditions": "rodent EAE; cited from earlier work"}, "[4]": {"experiment": "IFN-β specific activity, assay not stated"}, "[5]": {"tested_on": "MxA gene", "experiment": "MxA gene induction assay (ICLA)", "format": "cell-based, human", "from_the_text": "Based on the specific induction of the MxA gene by type I IFNs in cultured human cells (Von Wussow, P. et al. (1990) Eur. J. Immunol. 20:2015-2019; and Simon, A. et al. (1991) J. Interferon Res. 11:215-219), an immunochemiluminometric (“ICLA”) assay was developed by Files, J. G. et al. (1998) J. Interferon Res. 18:1019-1024. The ICLA assay, which is based on the procedure of Oh, S. K. et al. (1994) J. Immunol. Meth. 176:79-91, detects MXa protein in cell lysates using two non-competing anti-MxA monoclonal antibodies, one of which is conjugated with acridinium ester, which is detected in a luminometer. The MxA gene induction ICLA assay procedure used herein is described in detail in Files, J. G. et al. (1998) supra."}, "[6]": {"tested_on": "human amnionic cell line WISH infected with VSV", "format": "cell-based, vesicular stomatitis virus", "conditions": "WISH cells infected with VSV, viral plaque reduction"}},
  "note": "Values joined by “and” are separate entries in the source; they are usually repeats but may differ in a detail not shown here. Equal entries are not always repeated.",
  "data": [
    {"molecule": "CC(=O)N[C@H]1[C@H]([C@H](O)[C@H](O)CO)OC(O)(C(=O)O)C[C@@H]1O", "note": "(stereo partly shown) [sialic acid, N-acetylneuraminic acid]", "values": [
      {"measurement": "effect on antiviral activity of native IFN-β", "setting": "[1]", "result": "not"}
    ]},
    {"molecule": "(N-acetylneuraminosyl)galactosylglucosylceramide [GM3]", "values": [
      {"measurement": "effect on antiviral activity of native IFN-β", "setting": "[1]", "result": "abolished"}
    ]},
    {"molecule": "peak IFN-β-1b (fraction 5) from the Con A Sepharose column (ligand, Same polypeptide as IFN-β-1b lot A, after Con A Sepharose chromatography removed most of the non-covalently attached carbohydrate; The note on Met1 for m1 applies here too; also called IFN-β-1b lot A further purified by Con A Sepharose column chromatography) MSYNLLGFLQRSSNFQSQKLLWQLNGRLEYCLKDRMNFDIPEEIKQLQQFQKEDAALTIYEMLQNIFAIFRQDSSSTGWNETIVENLLANVYHQINHLKTVLEEKLEKEDFTRGKLMSSLHLKRYYGRILHYLKAKEYSHCAWTIVRVEILRNFYFINRLTGYLRN", "values": [
      {"measurement": "binding result", "setting": "[2]", "result": "no binding"}
    ]},
    {"molecule": "IFN-β-1b: recombinant human IFN-β expressed in E. coli with Cys17 to Ser17 substitution, 165 amino acids, not glycosylated (SEQ ID NO: 2) (protein, listed as Homo sapiens) MSYNLLGFLQRSSNFQSQKLLWQLNGRLEYCLKDRMNFDIPEEIKQLQQFQKEDAALTIYEMLQNIFAIFRQDSSSTGWNETIVENLLANVYHQINHLKTVLEEKLEKEDFTRGKLMSSLHLKRYYGRILHYLKAKEYSHCAWTIVRVEILRNFYFINRLTGYLRN", "values": [
      {"measurement": "in vivo efficacy in EAE models", "setting": "[3]", "result": "shows in vivo efficacy"},
      {"measurement": "specific activity", "setting": "[4]", "result": "2 to 3×10^7 IU/mg and ~3×10^7 IU/mg"}
    ]},
    {"molecule": "IFN-β-1aSER17: IFN-β-1a in which Cys17 is replaced by Ser17, expressed in CHO cells, purified by affinity chromatography (protein, UniProt P01574 22-187, looked up, variant C17S) Interferon beta: MSYNLLGFLQRSSNFQSQKLLWQLNGRLEYCLKDRMNFDIPEEIKQLQQFQKEDAALTIYEMLQNIFAIFRQDSSSTGWNETIVENLLANVYHQINHLKTVLEEKLEKEDFTRGKLMSSLHLKRYYGRILHYLKAKEYSHCAWTIVRVEILRNFYFINRLTGYLRN", "values": [
      {"measurement": "decrease in specific activity", "setting": "[5]; PNGase F-mediated deglycosylation, non-reducing or reducing conditions, FIG. 2B", "result": "30-35%"},
      {"measurement": "effect on specific activity of overnight incubation alone", "setting": "[5]; overnight (18 hours) incubation, FIG. 2B", "result": "not adversely affected"},
      {"measurement": "specific activity", "setting": "[5]; product label specific activity of reconstituted IFN-β-1b/Betaseron® as IFN standard, FIG. 2A", "result": "1.3 to 2.4×10^8 IU/mg"},
      {"measurement": "reduction in specific activity", "setting": "[5]; reduction in the presence of SDS followed by spontaneous reoxidation, FIG. 2B", "result": "~20", "unit": "%"}
    ]},
    {"molecule": "peak IFN-β-1b (fraction 5): IFN-β-1b lot A further purified by Con A Sepharose column chromatography, peak fraction 5, carbohydrates largely removed (protein, UniProt P01574 22-187, looked up, variant C17S, interferon beta-1b; deglycosylated fraction, IFN-β-1b lot A further purified by Con A Sepharose column chromatography, peak fraction 5, carbohydrates largely removed) Interferon beta: MSYNLLGFLQRSSNFQSQKLLWQLNGRLEYCLKDRMNFDIPEEIKQLQQFQKEDAALTIYEMLQNIFAIFRQDSSSTGWNETIVENLLANVYHQINHLKTVLEEKLEKEDFTRGKLMSSLHLKRYYGRILHYLKAKEYSHCAWTIVRVEILRNFYFINRLTGYLRN", "values": [
      {"measurement": "specific activity", "setting": "[6]", "result": "3.6×10^7 IU/mg"}
    ]}
  ]
}
